This experiment has as its target T1, Human OX40 (R&D systems, #3358_OX) (human, UniProt P43489 29-216).
T1 construct: Bought; Several catalogue numbers are given for it; also called human OX40 (R&D Systems, 3388-OX); OX40-Fc (R&D systems, #3358_OX); not shown: Fc part
T1 sequence: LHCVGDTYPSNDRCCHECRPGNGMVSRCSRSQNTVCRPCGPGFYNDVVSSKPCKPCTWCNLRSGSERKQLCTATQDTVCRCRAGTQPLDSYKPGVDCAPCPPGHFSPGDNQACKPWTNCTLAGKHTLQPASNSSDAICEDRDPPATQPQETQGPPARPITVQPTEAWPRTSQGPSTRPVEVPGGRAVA
Kind of experiment: ELISA: human OX40 coated, goat anti-human kappa light chain HRP, luminescence. The procedure:
ELISA plates were coated with human with CTLA-4 (BMS, Orencia) or human OX40 (R&D Systems, 3388-OX) at 0.4 or 0.5 μg/ml, respectively. The ELISA plates were washed with PBST and then blocked with PBST+2% BSA for 1h at room temperature and then washed again with PBST. The bispecific molecules were added in dilution series to the plates and incubated for 1h at room temperature. The ELISA plates were washed, and binding was detected using goat anti human kappa light chain HRP for 1 h at room temperature. SuperSignal Pico Luminescent was used as substrate and luminescence was measured using Fluostar Optima.
On the technique in general: An ELISA detects its analyte on a solid surface through an enzyme-linked reagent.

B1: anti-OX40 antibody 1168/1135 (antibody, V domains shown)
VH: EVQLLESGGGLVQPGGSLRLSCAASGFTFSGSSMSWVRQAPGKGLEWVSSISYYGGYTYYADSVKGRFTISRDNSKNTLYLQMNSLRAEDTAVYYCARYFPHYYFDYWGQGTLVTVSS
VL: not shown
notes: Tested as IgG
B1: the EC50 (read off the curve) (as a rule, the concentration giving half of the maximal effect) was about 0.2 nM.

The values are drawn from patent publication US20210238298A1 (ALLIGATOR BIOSCIENCE, published 2021).
